Assay results as given in US20220396617A1 (BEIJING MABWORKS BIOTECH, published 2022).
Changes are numbered by the printed parent chain.

T1: human TIGIT expressed on HEK293A cells (human, UniProt Q495A1 22-244)
T1 sequence: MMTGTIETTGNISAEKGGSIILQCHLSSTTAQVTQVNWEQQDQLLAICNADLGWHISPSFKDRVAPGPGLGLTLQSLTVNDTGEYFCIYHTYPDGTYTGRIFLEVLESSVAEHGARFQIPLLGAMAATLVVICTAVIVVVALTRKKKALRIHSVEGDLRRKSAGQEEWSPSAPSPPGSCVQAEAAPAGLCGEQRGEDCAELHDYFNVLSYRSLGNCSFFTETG

T2: human TIGIT (ECD)-his (human, UniProt Q495A1 22-141)
T2 construct: bought protein; also called hTIGIT(ECD)-his; Cat #: 10917-H08H, Sino Biological; not shown: his tag of the bought protein
T2 sequence: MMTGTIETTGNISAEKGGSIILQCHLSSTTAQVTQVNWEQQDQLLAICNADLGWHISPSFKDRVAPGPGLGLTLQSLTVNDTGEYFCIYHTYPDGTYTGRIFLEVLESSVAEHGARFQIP

T3: TIGIT (ECD)-hFc (human, UniProt Q495A1 22-141)
T3 construct: bought protein; also called recombinant human TIGIT (ECD)-hFc; Cat #: 10917-H02H, Sino Biological; not shown: human Fc (hFc) of the bought protein
T3 sequence: T2 sequence

B1: 70E11-VH3VL3 (antibody, human IgG1, kappa, V domains shown)
VH: QVQLVQSGAEVKKPGASVKVSCKASGYTFTSYNVHWVRQAPGQGLEWIGTIYPGNLATSYNQKFKGRVTLTADKSTSTVYMELSSLRSEDTAVYYCARSGTMDYWGQGTTVTVSS
VL: EIVLTQSPGTLSLSPGERATLSCRASSSISSTYLHWYQQKPGASPKLLIYNTQNLASGIPDRFSGSGSGTSYTLTISRLEPEDFAVYYCQQFGGYPLITFGAGTKLELKR
notes: humanized, human IgG1/kappa
B2: 70E11-VH1VL1 (antibody, human IgG1, kappa, V domains shown)
VH: B1 VH with I48M, L70M, A72R, K74T
VL: B1 VL with A43Q, S44A, K46R, S71D, Y72F
notes: humanized, human IgG1/kappa
B3: 70E11-VH2VL4 (antibody, human IgG1, kappa, V domains shown)
VH: B1 VH with I48M, K74T
VL: B1 VL with L21M, S22T, I59V, D61A
notes: humanized, human IgG1/kappa; also called 70E11H2L4
B4: 70E11-VH4VL2 (antibody, human IgG1, kappa, V domains shown)
VH: B1 VH with R38K, A40T
VL: B1 VL with A43Q, S44A, Y72F
notes: humanized, human IgG1/kappa
B5: 70E11-VH4VL3 (antibody, human IgG1, kappa, V domains shown)
VH: B1 VH with R38K, A40T
VL: B1 VL
notes: humanized, human IgG1/kappa
B6: 70E11-VH5VL3 (antibody, human IgG1, kappa, V domains shown)
VH: B1 VH with R38K, A40T, R67K, V68A
VL: B1 VL
notes: humanized, human IgG1/kappa; also called 70E11H5L3
B7: 149G11-VH3VL2 (antibody, human IgG1, kappa, V domains shown)
VH: QVQLVQSGAEVKKPGASVKVSCKASGYTFTNYWIHWVKQAPGQGLEWIGDIYPGGRYSNYNEKFRGRVTLTADTSTSTVYMELSSLTSEDTAVYYCARYYESAMDFWGQGTTVTVSS
VL: DIVMTQSPDSLAVSLGERATINCKSSQNLLYNSNQKSYLAWFQQKPGQPPKLLIYWASTRESGVPDRFSGSGSGTDFTLTISSLQAEDLAVYYCQQYYNYPFTFGAGTKLELKR
notes: humanized, human IgG1/kappa
B8: 149G11-VH2VL2 (antibody, human IgG1, kappa, V domains shown)
VH: B7 VH with K38R
VL: B7 VL
notes: humanized, human IgG1/kappa
B9: 149G11-VH2VL3 (antibody, human IgG1, kappa, V domains shown)
VH: B7 VH with K38R
VL: B7 VL with I21V, P49S
notes: humanized, human IgG1/kappa; also called 149G11H2L3
B10: 149G11-VH3VL3 (antibody, human IgG1, kappa, V domains shown)
VH: B7 VH
VL: B7 VL with I21V, P49S
notes: humanized, human IgG1/kappa
B11: 149G11-VH4VL2 (antibody, human IgG1, kappa, V domains shown)
VH: B7 VH with A40R, Q43H
VL: B7 VL
notes: humanized, human IgG1/kappa
B12: 149G11-VH4VL3 (antibody, human IgG1, kappa, V domains shown)
VH: B7 VH with A40R, Q43H
VL: B7 VL with I21V, P49S
notes: humanized, human IgG1/kappa
B13: 70E11-VH3VL4 (antibody, human IgG1, kappa, V domains shown)
VH: B1 VH
VL: B1 VL with L21M, S22T, I59V, D61A
notes: humanized, human IgG1/kappa
B14: 70E11-VH2VL2 (antibody, human IgG1, kappa, V domains shown)
VH: B1 VH with I48M, K74T
VL: B1 VL with A43Q, S44A, Y72F
notes: humanized, human IgG1/kappa
B15: 70E11-VH2VL3 (antibody, human IgG1, kappa, V domains shown)
VH: B1 VH with I48M, K74T
VL: B1 VL
notes: humanized, human IgG1/kappa
B16: 70E11-VH3VL2 (antibody, human IgG1, kappa, V domains shown)
VH: B1 VH
VL: B1 VL with A43Q, S44A, Y72F
notes: humanized, human IgG1/kappa
B17: 70E11-VH4VL4 (antibody, human IgG1, kappa, V domains shown)
VH: B1 VH with R38K, A40T
VL: B1 VL with L21M, S22T, I59V, D61A
notes: humanized, human IgG1/kappa
B18: 70E11-VH5VL2 (antibody, human IgG1, kappa, V domains shown)
VH: B1 VH with R38K, A40T, R67K, V68A
VL: B1 VL with A43Q, S44A, Y72F
notes: humanized, human IgG1/kappa
B19: 70E11-VH5VL4 (antibody, human IgG1, kappa, V domains shown)
VH: B1 VH with R38K, A40T, R67K, V68A
VL: B1 VL with L21M, S22T, I59V, D61A
notes: humanized, human IgG1/kappa
B20: Etigilimab (antibody, V domains shown)
VH: QVQLQESGPGLVKPSETLSLTCAVSGYSITSDYAWNWIRQPPGKGLEWIGYISYSGSTSYNPSLRSRVTISRDTSKNQFFLKLSSVTAADTAVYYCARRQVGLGFAYWGQGTLVTVSS
VL: DIQMTQSPSSLSASVGDRVTITCKASQDVSTAVAWYQQKPGKAPKLLIYSASYRYTGVPSRFSGSGSGTDFTFTISSLQPEDIATYYCQQHYSTPWTFGQGTKVEIK
B21: 149G11-VH1VL1 (antibody, human IgG1, kappa, V domains shown)
VH: B7 VH with K38R, I48M, L70M, A72R, T87R
VL: B7 VL with F42Y, L89V
notes: humanized, human IgG1/kappa

molecular target: T1, human TIGIT expressed on HEK293A cells; experiment: cell-based or functional assay

| Binder | NK92-mediated ADCC against HEK293A/human TIGIT cells, EC50 |
| --- | --- |
| B1 | 0.0191 nM |
| B2 | 0.00436 nM |
| B3 | 0.0172 nM |
| B4 | 0.00912 nM |
| B5 | 0.00729 nM |
| B6 | 0.00714 nM |
| B7 | 0.013 nM |
| B8 | 0.0162 nM |
| B9 | 0.00795 nM |
| B10 | 0.014 nM |
| B11 | 0.0184 nM |
| B12 | 0.0177 nM |

molecular target: T2, human TIGIT (ECD)-his; experiment: SPR (BIAcore 8K), human TIGIT (ECD)-his on CM5 chip, antibody injected
Procedure: They were also tested in SPR assays for their binding affinities to human and monkey TIGITs using the BIAcore™ 8K instrument (GE Life Sciences, US). […] The binding affinities were calculated with the RUs of blank controls subtracted. The association rate (kₐ) and dissociation rate (kd) were calculated using the one-to-one Langmuir binding model (BIA Evaluation Software, GE Life Sciences, US). The equilibrium dissociation constant KD was calculated as the kd/kₐ ratio.

| Binder | Kd |
| --- | --- |
| B1 | 0.124 nM |
| B3 | 0.43 nM |
| B13 | 0.0502 nM |
| B6 | 0.25 nM |
| B9 | 0.00329 nM |
| B11 | 0.00309 nM |
| B12 | 0.0022 nM |

molecular target: T3, TIGIT (ECD)-hFc; experiment: FACS blocking assay (protocol of Example 7): serially diluted antibody pre-incubated with TIGIT (ECD)-hFc, then binding of TIGIT (ECD)-hFc to A549/human PVR cells measured; blocked ligand: human PVR [A]

| Binder | IC50 (read off the curve) |
| --- | --- |
| B1 | ~4 µg/mL |
| B2 | ~4 µg/mL |
| B14 | ~4 µg/mL |
| B15 | ~4 µg/mL |
| B3 | ~4 µg/mL |
| B16 | ~4 µg/mL |
| B13 | ~4 µg/mL |
| B4 | ~4 µg/mL |
| B5 | ~4 µg/mL |
| B17 | ~4 µg/mL |
| B18 | ~4 µg/mL |
| B6 | ~4 µg/mL |
| B19 | ~4 µg/mL |
| B20 | ~4 µg/mL |

molecular target: T3, TIGIT (ECD)-hFc; experiment: FACS blocking assay (protocol of Example 7): serially diluted antibody pre-incubated with TIGIT (ECD)-hFc, then binding of TIGIT (ECD)-hFc to A549/human PVR cells measured; blocked ligand: human PVR [B]

| Binder | IC50 (read off the curve) |
| --- | --- |
| B7 | ~2 µg/mL |
| B21 | ~2 µg/mL |
| B9 | ~2 µg/mL |
| B10 | ~2 µg/mL |
| B11 | ~2 µg/mL |
| B12 | ~2 µg/mL |

molecular target: T1, human TIGIT expressed on HEK293A cells; experiment: FACS, HEK293A/human TIGIT cells, serially diluted antibody (protocol of Example 5) [A]

| Binder | EC50 (read off the curve) |
| --- | --- |
| B7 | ~0.2 µg/mL |
| B21 | ~0.2 µg/mL |
| B8 | ~0.2 µg/mL |
| B9 | ~0.2 µg/mL |
| B10 | ~0.2 µg/mL |
| B11 | ~0.2 µg/mL |
| B12 | ~0.2 µg/mL |
